Data: article PMC12509998

Experiments:
[1] = molecular target: eukaryotic elongation factor 2 kinase (UniProt O00418)
[2] = molecular target: eukaryotic elongation factor 2 kinase (UniProt O00418); remark: listed apart in the source

Chain of eukaryotic elongation factor 2 kinase (O00418 whole entry): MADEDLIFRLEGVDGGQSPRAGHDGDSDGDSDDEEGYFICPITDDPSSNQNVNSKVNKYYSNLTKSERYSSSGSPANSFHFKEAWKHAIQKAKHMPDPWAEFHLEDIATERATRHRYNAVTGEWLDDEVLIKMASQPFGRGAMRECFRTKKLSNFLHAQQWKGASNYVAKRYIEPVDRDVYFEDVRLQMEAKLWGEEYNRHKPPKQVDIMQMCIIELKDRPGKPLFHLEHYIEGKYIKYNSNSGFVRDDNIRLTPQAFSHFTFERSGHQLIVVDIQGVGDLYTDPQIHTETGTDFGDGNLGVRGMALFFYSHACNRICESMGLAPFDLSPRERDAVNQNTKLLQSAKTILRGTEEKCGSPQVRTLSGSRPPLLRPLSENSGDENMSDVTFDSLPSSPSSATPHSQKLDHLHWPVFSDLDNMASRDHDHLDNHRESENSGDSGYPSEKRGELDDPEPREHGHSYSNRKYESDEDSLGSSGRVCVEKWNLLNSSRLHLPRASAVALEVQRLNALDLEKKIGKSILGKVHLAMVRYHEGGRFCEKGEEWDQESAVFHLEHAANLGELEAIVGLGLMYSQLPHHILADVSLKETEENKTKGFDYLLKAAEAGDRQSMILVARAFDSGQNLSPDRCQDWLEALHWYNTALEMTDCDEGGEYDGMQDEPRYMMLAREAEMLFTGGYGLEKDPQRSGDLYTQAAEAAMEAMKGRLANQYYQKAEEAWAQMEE

KCaM (concentration of CaM at half-maximal activity) of T348-phosphorylated eEF-2K toward 150 μM peptide substrate, 50 μM free Ca2+ [1] [nM]	KCaM^app of eEF-2K (0.5 nM) activity toward 5 μM yeast eEF-2, 50 μM free Ca2+ [2] [nM]	KCaM (concentration of CaMC at half-maximal activity) of T348-phosphorylated eEF-2K toward 150 μM peptide substrate, 50 μM free Ca2+ [1] [nM]	Substance
67	121		calmodulin, full-length (from UniProt P0DP23 1-149) (natural protein)
	156	85	isolated C-terminal lobe of calmodulin (residues 76-148) (from UniProt P0DP23 77-149) (domain or fragment)
